# Test results as given in IntAct's records for PubMed 20080638.
# B1: Chaperonin-containing T-complex member BBS12 (Homo sapiens), Q6ZW61 (parent)
# chain: MVMACRVVNKRRHMGLQQLSSFAETGRTFLGPLKSSKFIIDEECHESVLISSTVRLLESLDLTSAVGQLLNEAVQAQNNTYRTGISTLLFLVGAWSSAVEECLHLGVPISIIVSVMSEGLNFCSEEVVSLHVPVHNIFDCMDSTKTFSQLETFSVSLCPFLQVPSDTDLIEELHGLKDVASQTLTISNLSGRPLKSYELFKPQTKVEADNNTSRTLKNSLLADTCCRQSILIHSRHFNRTDNTEGVSKPDGFQEHVTATHKTYRCNDLVELAVGLSHGDHSSMKLVEEAVQLQYQNACVQQGNCTKPFMFDISRIFTCCLPGLPETSSCVCPGYITVVSVSNNPVIKELQNQPVRIVLIEGDLTENYRHLGFNKSANIKTVLDSMRLQEDSSEELWANHVLQVLIQFKVNLVLVQGNVSERLIEKCINSKRLVIGSVNGSVMQAFAEAAGAVQVAYITQVNEDCVGDGVCVTFWRSSPLDVVDRNNRIAILLKTEGINLVTAVLTNPVTAQMQIKEDRFWTCAYRLYYALKEEKVFLGGGAVEFLCLSCLHILAEQSLKKENHACSGWLHNTSSWLASSLAIYRPTVLKFLANGWQKYLSTLLYNTANYSSEFEASTYIQHHLQNATDSGSPSSYILNEYSKLNSRIFNSDISNKLEQIPRVYDVVTPKIEAWRRALDLVLLVLQTDSEIITGHGHTQINSQELTGFLFL
# partner: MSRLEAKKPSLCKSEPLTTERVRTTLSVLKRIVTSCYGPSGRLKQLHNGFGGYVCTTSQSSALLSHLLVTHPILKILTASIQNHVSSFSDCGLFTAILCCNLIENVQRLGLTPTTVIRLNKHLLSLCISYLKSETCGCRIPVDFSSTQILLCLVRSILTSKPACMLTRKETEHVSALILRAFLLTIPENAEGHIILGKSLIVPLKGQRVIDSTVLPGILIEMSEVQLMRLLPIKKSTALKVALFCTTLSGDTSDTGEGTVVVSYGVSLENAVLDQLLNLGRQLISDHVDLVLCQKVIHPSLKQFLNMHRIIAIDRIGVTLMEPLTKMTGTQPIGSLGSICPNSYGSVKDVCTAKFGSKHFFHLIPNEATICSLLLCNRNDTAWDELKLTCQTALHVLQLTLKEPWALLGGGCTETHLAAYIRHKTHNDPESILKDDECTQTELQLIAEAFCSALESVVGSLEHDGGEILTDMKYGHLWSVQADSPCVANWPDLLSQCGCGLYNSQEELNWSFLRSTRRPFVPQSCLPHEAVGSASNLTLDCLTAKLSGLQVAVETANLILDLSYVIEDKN
# B2: Molecular chaperone MKKS (Homo sapiens), Q9NPJ1 (parent)
# chain: B1 partner
# partner: B1 chain
# B3: BBSome complex assembly protein BBS10 (Homo sapiens), Q8TAM1 (parent)
# chain: MLSSMAAAGSVKAALQVAEVLEAIVSCCVGPEGRQVLCTKPTGEVLLSRNGGRLLEALHLEHPIARMIVDCVSSHLKKTGDGAKTFIIFLCHLLRGLHAITDREKDPLMCENIQTHGRHWKNCSRWKFISQALLTFQTQILDGIMDQYLSRHFLSIFSSAKERTLCRSSLELLLEAYFCGRVGRNNHKFISQLMCDYFFKCMTCKSGIGVFELVDDHFVELNVGVTGLPVSDSRIIAGLVLQKDFSVYRPADGDMRMVIVTETIQPLFSTSGSEFILNSEAQFQTSQFWIMEKTKAIMKHLHSQNVKLLISSVKQPDLVSYYAGVNGISVVECLSSEEVSLIRRIIGLSPFVPPQAFSQCEIPNTALVKFCKPLILRSKRYVHLGLISTCAFIPHSIVLCGPVHGLIEQHEDALHGALKMLRQLFKDLDLNYMTQTNDQNGTSSLFIYKNSGESYQAPDPGNGSIQRPYQDTVAENKDALEKTQTYLKVHSNLVIPDVELETYIPYSTPTLTPTDTFQTVETLTCLSLERNRLTDYYEPLLKNNSTAYSTRGNRIEISYENLQVTNITRKGSMLPVSCKLPNMGTSQSYLSSSMPAGCVLPVGGNFEILLHYYLLNYAKKCHQSEETMVSMIIANALLGIPKVLYKSKTGKYSFPHTYIRAVHALQTNQPLVSSQTGLESVMGKYQLLTSVLQCLTKILTIDMVITVKRHPQKVHNQDSEDEL
# partner: B1 chain
# B4: BBSome complex assembly protein BBS10 (Homo sapiens), Q8TAM1 (parent)
# chain: B3 chain
# partner: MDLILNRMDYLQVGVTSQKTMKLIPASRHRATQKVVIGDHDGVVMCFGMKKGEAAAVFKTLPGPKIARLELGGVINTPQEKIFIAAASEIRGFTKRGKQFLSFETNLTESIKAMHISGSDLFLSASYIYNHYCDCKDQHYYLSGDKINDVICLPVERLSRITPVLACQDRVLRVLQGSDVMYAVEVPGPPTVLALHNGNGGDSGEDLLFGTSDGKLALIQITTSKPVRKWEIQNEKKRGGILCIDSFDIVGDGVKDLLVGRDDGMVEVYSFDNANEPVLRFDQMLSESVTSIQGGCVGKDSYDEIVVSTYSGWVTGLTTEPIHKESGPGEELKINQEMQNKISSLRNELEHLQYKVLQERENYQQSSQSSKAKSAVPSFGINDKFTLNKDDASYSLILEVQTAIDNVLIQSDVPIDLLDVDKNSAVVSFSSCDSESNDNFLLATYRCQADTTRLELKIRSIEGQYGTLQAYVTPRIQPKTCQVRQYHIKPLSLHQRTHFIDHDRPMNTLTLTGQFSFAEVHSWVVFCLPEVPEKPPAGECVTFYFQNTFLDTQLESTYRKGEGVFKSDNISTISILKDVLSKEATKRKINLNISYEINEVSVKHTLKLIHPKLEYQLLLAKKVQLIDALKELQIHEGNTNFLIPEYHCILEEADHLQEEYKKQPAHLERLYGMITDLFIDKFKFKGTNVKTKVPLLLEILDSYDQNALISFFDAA
# B5: BBSome complex assembly protein BBS10 (Homo sapiens), Q8TAM1 (parent)
# chain: B3 chain
# partner: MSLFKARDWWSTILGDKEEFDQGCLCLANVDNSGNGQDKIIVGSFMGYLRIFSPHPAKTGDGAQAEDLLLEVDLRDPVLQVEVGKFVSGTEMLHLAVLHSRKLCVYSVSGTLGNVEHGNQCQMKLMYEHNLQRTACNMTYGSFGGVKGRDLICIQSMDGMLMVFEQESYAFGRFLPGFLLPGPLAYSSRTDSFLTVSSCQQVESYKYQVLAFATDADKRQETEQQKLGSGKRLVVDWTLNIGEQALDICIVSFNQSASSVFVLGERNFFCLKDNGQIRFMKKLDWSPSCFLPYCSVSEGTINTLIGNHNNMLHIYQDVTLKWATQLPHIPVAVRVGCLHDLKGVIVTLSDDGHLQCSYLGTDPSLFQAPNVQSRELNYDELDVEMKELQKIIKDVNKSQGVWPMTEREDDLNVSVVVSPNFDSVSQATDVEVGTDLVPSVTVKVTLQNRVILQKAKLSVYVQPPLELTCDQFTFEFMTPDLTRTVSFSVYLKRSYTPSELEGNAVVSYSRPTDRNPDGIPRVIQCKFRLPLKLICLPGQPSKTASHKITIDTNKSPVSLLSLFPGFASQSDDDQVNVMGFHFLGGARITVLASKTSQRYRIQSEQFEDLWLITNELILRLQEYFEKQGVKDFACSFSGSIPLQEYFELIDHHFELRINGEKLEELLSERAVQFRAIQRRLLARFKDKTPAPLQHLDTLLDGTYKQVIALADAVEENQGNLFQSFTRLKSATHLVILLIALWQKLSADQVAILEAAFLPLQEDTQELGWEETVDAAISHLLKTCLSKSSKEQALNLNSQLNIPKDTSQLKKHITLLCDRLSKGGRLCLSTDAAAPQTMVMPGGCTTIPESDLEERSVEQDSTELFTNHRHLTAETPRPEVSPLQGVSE
# Variants of: B1
# Conditions: with mkks_human MKKS
row,effect of a mutation on the interaction,Variant
1,disrupting interaction,I346T
2,decreasing interaction,T501M
3,decreasing interaction,G540V

# Variants of: B2
# Conditions: with bbs12_human BBS12, Q6ZW61
row,effect of a mutation on the interaction,Variant
1,decreasing interaction,MSRLEAKKPSLCKSEPLTTERVRTTLSVLKRIVTSCYGPSGRLKQLHNGFGGYVCTASQSSALLSHLLVTHPILKILTASIQNHVSSFSDCGLFTAILCCNLIENVQRLGLTPTTVIRLNKHLLSLCISYLKSETCGCRIPVDFSSTQILLCLVRSILTSKPACMLTRKETEHVSALILRAFLLTIPENAEGHIILGKSLIVPLKGQRVIDSTVLPGILIEMSEVQLMRLLPIKKSTALKVALFCTTLSGDTSDTGEGTVVVSYGVSLENAVLDQLLNLGRQLISDHVDLVLCQKVIHPSLKQFLNMHRIIAIDRIGVTLMEPLTKMTGTQPIGSLGSICPNSYGSVKDVCTAKFGSKHFFHLIPNEATICSLLLCNRNDTAWDELKLTCQTALHVLQLTLKEPWALLGGGCTETHLAAYIRHKTHNDPESILKDDECTQTELQLIAEAFCSALESVVGSLEHDGGEILTDMKYGHLWSVQADSPCVANWPDLLSQCGCGLYNSQEELNWSFLRSTRRPFVPQSCLPHEAVGSASNLTLDCLTAKLSGLQVAVETANLILDLSYVIEDKN [T57A]

# Variants of: B3
# Conditions: with bbs12_human BBS12, Q6ZW61
row,effect of a mutation on the interaction,Variant
1,decreasing interaction,S311A
2,decreasing interaction,D81N
3,decreasing interaction,V240G
4,decreasing interaction,S329L

# Variants of: B4
# Conditions: with bbs7_human BBS7, Q8IWZ6
row,effect of a mutation on the interaction,Variant
1,decreasing interaction,V240G
2,decreasing interaction,R34P
3,decreasing interaction,D81N

# Variants of: B5
# Conditions: with pthb1_human BBS9, Q3SYG4
row,effect of a mutation on the interaction,Variant
1,decreasing interaction,D81N
2,decreasing interaction,R49W
